Experimental data as given in patent US20050085629A1, “Utilization of FPRL1 as a functional receptor by serum amyloid A (SAA)” (priority 1999, published 2005).
Each block holds one molecule with its values, some of them ahead of it.

Key:
[1] = molecular target: T1, FPRL1 (Homo sapiens, UniProt P25090); experiment: Calcium mobilization (Fura-2) in FPRL1 transfected HEK 293 cells (FPRL1/293 cells); assay type: cell-based
T1 sequence (P25090 1-351): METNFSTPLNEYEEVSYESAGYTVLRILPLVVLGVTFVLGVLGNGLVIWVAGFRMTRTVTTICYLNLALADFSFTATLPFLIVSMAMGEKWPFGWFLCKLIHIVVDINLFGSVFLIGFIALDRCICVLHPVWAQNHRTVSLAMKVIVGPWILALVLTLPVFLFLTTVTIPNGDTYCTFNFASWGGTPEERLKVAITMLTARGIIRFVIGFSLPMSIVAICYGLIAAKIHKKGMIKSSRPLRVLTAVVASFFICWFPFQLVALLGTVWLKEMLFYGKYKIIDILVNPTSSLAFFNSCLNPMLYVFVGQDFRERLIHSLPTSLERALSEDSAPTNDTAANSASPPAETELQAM

[2] = molecular target: T1, FPRL1; experiment: Chemotaxis of FPRL1/293 cells (48-well microchemotaxis chamber); assay type: cell-based; details: for agonist activity on FPRL1: concluded from chemotaxis experiments
[3] = molecular target: T1, FPRL1; experiment: 125I-SAA ligand binding to FPRL1/293 cells
Experimental: (§1) rhSAA (20: g) was radio-iodinated on tyrosine and lysine residues with the chloramine T method and the specific activity of the labeled SAA was 5.8 mCi/mg (courtesy of J. Dobbs, SAIC Frederick, NCI-FCRDC, Frederick, Md.). A constant concentration of 16 nM ^125I-SAA was incubated for 20 min at 37° C. with human monocytes or 293 cells transfected with chemoattractant receptor cDNAs (1.5-2×10^6/sample, in 200: l RPMI1640, 1% BSA, 0.05% NaN3) in the presence of increasing concentrations of unlabeled SAA. After incubation, the cells were washed once with ice-cold PBS then were layered onto a 10% sucrose/PBS cushion in Eppendorf tubes. The cells were centrifuged at 10,000 g for 1 min and the tips of the tubes containing cell pellets were cut and measured for radioactivity in a γ-counter. The binding data were analyzed and plotted with a computer-aided program LIGAND (P. Munson, Division of Computer Research and Technology, NIH, Bethesda, Md.). The level of specific binding was determined by subtraction of non-specific binding (cpm on cells in the presence of 1: M unlabeled SAA) from the total binding (cpm on cells in the absence of unlabeled SAA). Experiments were performed at least 5 times which yielded similar results.

[4] = tested on: human monocytes; experiment: Cross-desensitization of Ca2+ mobilization in human monocytes (and neutrophils); assay type: cell-based
[5] = tested on: human monocytes; experiment: 125I-SAA ligand binding to human monocytes
Source text: GLPEKY. (SEQ. ID. No. 1). This rhSAA corresponds to SAA-1α, one of the major SAA isoforms in the serum, except for the addition of a methionine at the NH2 terminus as well as the substitution of aspartic acid for asparagine at position 60, which appears in the SAA2 isoform (reviewed in ref. Steinkasserer et al., Biochem. J., 268:187-193 (1990)). rhSAA at concentrations used in the study was negative for endotoxin as assessed by Limulus amebocyte lysate assays (sensitivity: 0.06 IU/ml. Bio Whittaker, Walkersville, Md.). High density lipoprotein (HDL) was purchased from Sigma (St. Louis, Mo.). […]
rhSAA (20: g) was radio-iodinated on tyrosine and lysine residues with the chloramine T method and the specific activity of the labeled SAA was 5.8 mCi/mg (courtesy of J. Dobbs, SAIC Frederick, NCI-FCRDC, Frederick, Md.). […] The cells were centrifuged at 10,000 g for 1 min and the tips of the tubes containing cell pellets were cut and measured for radioactivity in a γ-counter. The binding data were analyzed and plotted with a computer-aided program LIGAND (P. Munson, Division of Computer Research and Technology, NIH, Bethesda, Md.). The level of specific binding was determined by subtraction of non-specific binding (cpm on cells in the presence of 1: M unlabeled SAA) from the total binding (cpm on cells in the absence of unlabeled SAA). […]

[6] = tested on: neutrophils; experiment: 125I-SAA ligand binding to neutrophils; parameters: species or system human
[7] = molecular target: human peripheral blood CD3+ T lymphocytes; experiment: 125I-SAA binding to human peripheral blood CD3+ T lymphocytes
[8] = molecular target: T2, FPR (Homo sapiens, UniProt P21462); experiment: Radiolabeled SAA binding to cells transfected to express FPR; parameters: expressed in transfected cells; details: cells transfected to express the receptor
T2 sequence (P21462 1-350): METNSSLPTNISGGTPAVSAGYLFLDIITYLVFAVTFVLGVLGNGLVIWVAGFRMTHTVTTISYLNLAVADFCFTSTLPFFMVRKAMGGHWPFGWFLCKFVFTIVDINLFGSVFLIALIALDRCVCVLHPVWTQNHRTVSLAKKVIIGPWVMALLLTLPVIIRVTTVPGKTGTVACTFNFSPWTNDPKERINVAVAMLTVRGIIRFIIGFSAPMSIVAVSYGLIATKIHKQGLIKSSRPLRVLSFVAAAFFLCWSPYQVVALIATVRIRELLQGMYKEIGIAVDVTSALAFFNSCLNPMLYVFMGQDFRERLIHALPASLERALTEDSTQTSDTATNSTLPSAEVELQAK
Experimental: as §1

[9] = molecular target: T2, FPR; details: FPR expressing 293 cells, FIG. 2C
[10] = tested on: leukocyte; details: from Badolato et al. 1994, Xu et al. 1995, Badolato et al. 1995; cited from earlier work
[11] = molecular target: T2, FPR; experiment: Chemotaxis of FPR expressing ETFR cells (48-well microchemotaxis chamber); assay type: cell-based; parameters: expressed in transfected cells; host or cells: ETFR cells (rat basophil leukemia cell line), gift from Drs; H. Ali and R. Snyderman; details: FIG. 3B
[12] = FPRL1/293 cells, commercially available LXA4 (Biomol)
[13] = FPRL1/293 cells pretreated with toxin

Molecule: CCCCC[C@H](O)/C=C/C=C\C=C\C=C\[C@@H](O)[C@@H](O)CCCC(=O)O [LXA4, lipoxin A4]
induction of Ca2+ flux [1, 12]: did not detect a significant induction | induction of chemotaxis [2, 12]: did not detect a significant induction | inhibition of SAA binding ([3]; phagocytes or FPRL1/293 cells): nor did we observe inhibition

Molecule: CSCC[C@H](NC=O)C(=O)N[C@@H](CC(C)C)C(=O)N[C@@H](Cc1ccccc1)C(=O)O [fMLP, N-formyl-methionyl-leucyl-phenylalanine]
desensitization of Ca2+ flux response to SAA by prior fMLP ([1]; FPRL1/293 cells, sequential stimulation, fMLP at 100 fold excess of SAA): only partially desensitized | desensitization of SAA-induced Ca2+ mobilization ([4]; fMLP 10^-3 M = 1 mM, monocytes, FIG. 1C): completely desensitized | desensitization of SAA-induced Ca2+ mobilization ([4]; fMLP at 100 nM, monocytes, FIG. 1B): partial desensitizing effect | attenuation of subsequent cell response (Ca2+) to SAA ([4]; fMLP at relatively high concentrations (10: M and more), monocytes and neutrophils): able to attenuate a subsequent cell response to SAA | cell migration in response to stimulant ([2]; FPRL1/293 cells, wide range of concentrations, FIG. 3A): failed to migrate | agonist activity on FPRL1 [2]: partial agonist | competition with 125I-SAA for binding ([3]; unlabeled fMLP at high concentrations (≧10: M), FPRL1/293 cells, FIG. 4D): only partially competed | competition with 125I-SAA for binding ([5]; unlabeled fMLP at high concentrations (≧10: M), FIG. 4C): only partially competed

Molecule: pertussis toxin
effect of cell pretreatment on SAA induced Ca2+ mobilization [1, 13]: inhibited | effect of cell pretreatment on SAA induced chemotaxis [2, 13]: inhibited

binding sites/cell ([3]; FPRL1/293 cells, FIG. 4A): 42000 binding sites/cell | specific binding ([5]; FIG. 4B): specifically bound | Kd [7]: 300 nM | binding to FPR receptor [8]: not the FPR receptor
B1: ^125I-SAA: rhSAA radio-iodinated on tyrosine and lysine residues with the chloramine T method (protein)
chain: MRSFFSFLGEAFDGARDMWRAYSDMREANYIGSDKYFHARGNYDAAKRGPGGVWAAEAISNARENIQRFFGRGAEDSLADQAANEWGRSGKDPNHFRPAGLPEKY
Kd [6]: 45 nM

B2: serum amyloid A (protein, listed as Homo Sapiens)
chain: MRSFFSFLGEAFDGARDMWRAYSDMREANYIGSDKYFHARGNYDAAKRGPGGVWAAEAISNARENIQRFFGRGAEDSLADQAANEWGRSGKDPNHFRPAGLPEKY
modifications: N-terminal methionine
notes: Recombinant human SAA from Pepro Tech; corresponds to SAA-1α with added NH2-terminal methionine and aspartic acid for asparagine at position 60
desensitization of Ca2+ flux response to fMLP by prior SAA ([1]; FPRL1/293 cells, sequential stimulation, 100 fold excess of fMLP): able to desensitize the cell response to a 100 fold excess of fMLP | EC50 ([1]; FPRL1 transfected cells (FPRL1/293 cells), FIG. 2B, read-out: EC50 for Ca2+ mobilization): 250 nM | desensitization of Ca2+ flux induced by chemokines (MCP-1, RANTES, MCP-3, MIP-1, IL-8, SDF-1) ([4]; SAA at 1: M, monocytes or neutrophils): failked to desensitize | attenuation of cell response (Ca2+) to fMLP ([4]; fMLP used at 100 nM, monocytes, FIG. 1A): did not attenuate the cell response | EC50 ([2]; FPRL1/293 cells, read-out: EC50 of migratory response (chemotaxis)): 200 nM | agonist activity on FPRL1 [2]: full agonist activity | induction of Ca2+ mobilization [9]: not in FPR expressing cells | optimal concentrations to induce leukocyte migration, adhesion and tissue infiltration [10]: 0.8-4 : M | cell migration in response to stimulant [11]: did not migrate
